As usually defined, the Kd is the free concentration of one partner at which half of the binding sites on the other are occupied at equilibrium, for simple one-to-one binding. Low readings indicate tighter binding, high ones weaker binding.

No end group written: not given here. *: point of attachment. Biotin = O=C1N[C@H]2[C@H](CS[C@H]2CCCCC(=O)*)N1

The test system of assay [1] is E13 chick DRG neurons. In words: cDRG neurite outgrowth assay. It is filed as cell-based. How it is done:
FIG. 2D. Differential effects of Amino-Nogo fragments on neurite outgrowth. Dissociated neurons from E13 chick DRGs were plated on 96 well dishes coated with lpmol protein per well and stained for neurofilament localization.
FIG. 2E. Neurite length per neuron were measured and plotted as percentage of PBS control with increasing concentration of dried protein for experiment described in […].
FIG. 6C. B24/32 peptide inhibits neurite outgrowth. Dissociated neurons from E13 chick DRG were plated onto 96 well dishes coated with 500 pmol of dried peptides as indicated and stained for neurofilament localization.
FIG. 6D. Neurite length per neuron was measured and plotted as percentage of PBS control for experiments as in (C).
It has been recognized that the Amino-Nogo-A protein inhibits non-neuronal cell spreading and axonal outgrowth when the protein is substrate bound (Chen, M. S., et al., Nature 403:434-439 (2000); Fournier, A. E., et al., Nature 409:341-346 (2001)). […] The later domain has been termed Δ20. To determine whether the NgR-interacting aa of Amino-Nogo-A described in Example 1 regulate cell spreading and axonal outgrowth, various fragments were expressed as GST fusion proteins and purified from E. coli. To generate GST fusion proteins, amino Nogo fragments were cloned in pGEX2T (Amersham Pharmacia). Native and soluble GST fusion proteins were expressed and purified as described (GrandPre, T., et al., Nature 403:439-444 (2000)). COS-7 binding assays were done as described (Fournier, A. E., et al., Nature 409:341-346 (2001)). Bound AP to COS-7 cells was measured using NIH image software. Fibroblast spreading and cDRG outgrowth assay were done as described (Fournier, A. E., et al., Nature 409:341-346 (2001)) with some modifications. Briefly, 50 μl of purified GST fusion protein or peptides diluted in PBS was pipetted into polylysine precoated 96 well plates (Becton Dickson Biocoat plates) and dried overnight at room temperature. For fibroblast spreading assay, subconfluent COS-7 cells were then plated for 1 hour in serum containing medium before fixation and staining with rho damine-phalloidin.
The same GST-Amino-Nogo proteins were tested for their ability to reduce neurite outgrowth from chick E13 DRG neurons. For cDRG outgrowth assay, dissociated E13 cDRG neurons were plated for 6 hours before fixation. […] Cell area, number of attached cells and neurite length were measured using the Imageexpress machine and software (Axon Instrument).
We reasoned that fusing the 24 aa segment of Amino-Nogo-A to NEP32 antagonist peptide might create a high affinity antagonist with a potency similar to the binding of AP-B4C-66 to NgR. […] Cell area, number of attached cells and neurite length were measured using the linageexpress machine and software (Axon Instrument).

In assay [2] the target is T1, NgR expressed on COS-7 cells (species not stated).
T1 chain: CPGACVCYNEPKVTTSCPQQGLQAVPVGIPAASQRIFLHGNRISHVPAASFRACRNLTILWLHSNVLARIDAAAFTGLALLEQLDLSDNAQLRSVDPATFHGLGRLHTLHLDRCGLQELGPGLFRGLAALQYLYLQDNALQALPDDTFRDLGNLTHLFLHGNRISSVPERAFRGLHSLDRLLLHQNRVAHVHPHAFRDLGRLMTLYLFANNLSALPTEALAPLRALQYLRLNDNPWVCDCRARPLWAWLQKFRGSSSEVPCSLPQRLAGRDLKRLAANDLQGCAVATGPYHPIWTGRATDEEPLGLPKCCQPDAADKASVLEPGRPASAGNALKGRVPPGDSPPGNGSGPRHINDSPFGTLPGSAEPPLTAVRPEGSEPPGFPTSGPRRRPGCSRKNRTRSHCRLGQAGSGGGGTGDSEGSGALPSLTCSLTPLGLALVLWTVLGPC
In words: AP fusion on NgR-expressing COS-7 cells. The source says: Several alkaline phosphatase (AP) fusion proteins containing various Nogo-A segments derived from regions between the amino terminus and the first hydrophobic segment were examined to identify the mechanism of Amino-Nogo-A action. To generate additional AP fusion proteins, human amino Nogo fragments were amplified and ligated to the pcAP6 vector digested with restriction enzymes EcoRI and XhoI as described (Fournier, A. E., et al., Nature 409:341-346 (2001)). Plasmids were then transfected into HEK293T cells and conditioned media were collected after 7 days. None of these fragments bind with high affinity to non-transfected COS-7 cells. […] This binding is saturable with a Kd indistinguishable from that for AP-Nogo-66 association with NgR (Table I). To better define the region responsible for Amino-Nogo interaction with NgR, a range of truncation mutants of Amino-Nogo were examined as AP fusion proteins.
Binding Kds for AP fused Amino-Nogo fragments were measured by applying conditioned media containing AP fusion protein to NgR expressing COS-7 cells. Bound AP was stained and measured.

Take “biotin-IFSAELSKTSVVDLLYWRDIKKTGGRIYKGVIQAIQKSDEGHP FRAYLESEVAISEE [24-32 fusion peptide]”: the “axon outgrowth from DRG neurons” value in assay [1] (500 pmol of dried biotinylated peptide per well) is “potently inhibited axon outgrowth”.
With “Biotin-IFSAELSKTSVVDLLYWRDIKKTG [carboxyl 24 aa segment of Amino-Nogo-A]”, in assay [1] (biotinylated peptide, FIGS. 6C and 6D), the “effect on Nogo-66 action on neurite outgrowth” value is given as “does not block or enhance Nogo-66 action on neurite outgrowth”.

B1: AP-Amino-Nogo-A-24 (a.a. 995-1018) (ligand)
chain: IFSAELSKTSVVDLLYWRDIKKTG
modifications: also: alkaline phosphatase (AP) fusion
notes: also called Amino-Nogo-24; not shown: alkaline phosphatase (AP), vector pcAP6
Molecule B1 gave a dissociation constant (Kd) in assay [2] of 2.43 nM.

B2: AP-fused Amino-Nogo fragment a.a. 995-1015 (ligand)
chain: IFSAELSKTSVVDLLYWRDIK
modifications: also: alkaline phosphatase (AP) fusion
notes: not shown: alkaline phosphatase (AP), vector pcAP6
Regarding B2, binding in assay [2] was characterised by a dissociation constant (Kd) of 4.55 nM.

B3: AP-fused Amino-Nogo-A-19 (a.a. 995-1013) (ligand)
chain: IFSAELSKTSVVDLLYWRD
modifications: also: alkaline phosphatase (AP) fusion
notes: also called Ng19; not shown: alkaline phosphatase (AP), vector pcAP6
In turn, B3 yielded a Kd in assay [2] of 2.48 nM.

B4: AP-fused Amino-Nogo fragment a.a. 996-1018 (ligand)
chain: FSAELSKTSVVDLLYWRDIKKTG
modifications: also: alkaline phosphatase (AP) fusion
notes: as for B2
As to B4, the Kd in assay [2] amounted to 26.6 nM.

B5: AP-fused Amino-Nogo fragment a.a. 995-1014 (ligand)
chain: IFSAELSKTSVVDLLYWRDI
modifications: also: alkaline phosphatase (AP) fusion
notes: as for B2
In assay [2], B5 had a Kd of 3.19 nM.

B6: AP-fused Amino-Nogo fragment a.a. 971-1018 (ligand)
chain: KVLVKEAEKKLPSDTEKEDRSPSAIFSAELSKTSVVDLLYWRDIKKTG
modifications: also: alkaline phosphatase (AP) fusion
notes: as for B2
As for B6, the affinity in assay [2], expressed as Kd, was 2.69 nM.

(Values after patent publication US20090111753A1, “Nogo-A Polypeptide Fragments, Variant Nogo Receptor-1 Polypeptides, and Uses Thereof” (Yale University, priority 2004, published 2009).)
